Test results: the supplement of paper PMC7125110
± gives the standard error. Fewer inactive variants are shown than the library holds.

B1: glmS ribozyme (parent)
chain: AUAAAAGCGCCAGAACUACAGAAAUGUAGUUGACGAGGAGGAGGUUUAUCGAAUUUUCGGCGGAUGCCUCCAAA

Legend:
Details in all cases: with glucosamine-6-phosphate
glucosamine-6-phosphate [1] = variants of: B1; assay: self-cleavage kobs at 40 uM GlcN6P; higher = faster cleavage; RNA array
Method in brief: (§1)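 Barcoded ribozyme variants on sequenced MiSeq chips were transcribed in situ by E. coli RNA polymerase and followed at 37 °C through a hybridised Cy3 probe. Glucosamine-6-phosphate at 40 μM to 10 mM in HEPES/KCl/Mg(OAc)2 buffer was flowed in, and tiles were imaged over ~14 h. Signals were normalised to baseline and to non-cleaving reference variants, and per-tile medians were fit to one- or two-exponential decays to give kobs. Weighted Michaelis–Menten fits across concentrations gave kcat and KM.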

glucosamine-6-phosphate [2] = variants of: B1; assay: self-cleavage kobs at 640 uM GlcN6P; higher = faster cleavage; RNA array
Method in brief: as §1

glucosamine-6-phosphate [3] = variants of: B1; assay: self-cleavage kobs at 2500 uM GlcN6P; higher = faster cleavage; RNA array
Method in brief: as §1

glucosamine-6-phosphate [4] = variants of: B1; assay: self-cleavage kobs at 160 uM GlcN6P; higher = faster cleavage; RNA array
Method in brief: as §1

glucosamine-6-phosphate [5] = variants of: B1; assay: self-cleavage kobs at 10000 uM GlcN6P; higher = faster cleavage; RNA array
Method in brief: as §1

Variant | self-cleavage kobs at 40 uM GlcN6P (glucosamine-6-phosphate [1]) [s⁻¹] | self-cleavage kobs at 640 uM GlcN6P (glucosamine-6-phosphate [2]) [s⁻¹] | self-cleavage kobs at 2500 uM GlcN6P (glucosamine-6-phosphate [3]) [s⁻¹] | self-cleavage kobs at 160 uM GlcN6P (glucosamine-6-phosphate [4]) [s⁻¹] | self-cleavage kobs at 10000 uM GlcN6P (glucosamine-6-phosphate [5]) [s⁻¹]
G43A G51C U54C C71U | < 1e-05 | < 1e-05 | < 1e-05 | – | –
G7C U47C | < 1e-05 | < 1e-05 | – | < 1e-05 | < 1e-05
C11G C34A A64C | < 1e-05 | – | – | – | < 1e-05
U56C G62C | < 1e-05 | < 1e-05 | – | – | < 1e-05
A15C G32U A33C | < 1e-05 | < 1e-05 | < 1e-05 | < 1e-05 | < 1e-05
C11G A36G C67U | < 1e-05 | – | – | – | –
G32A U47G U57G | < 1e-05 | – | – | – | –
C34U G41A C68A | < 1e-05 | – | – | – | < 1e-05
A48U G63U | < 1e-05 | < 1e-05 | < 1e-05 | < 1e-05 | < 1e-05
G7A G13U A14C A15U G35A U55C A64G C71A | < 1e-05 | – | – | – | < 1e-05
A15U G62C | < 1e-05 | < 1e-05 | – | – | < 1e-05
A12U C70A | 8.79e-05 ± 1.1e-05 | 0.00047 ± 5.2e-05 | 0.00049 ± 7e-05 | 0.000177 ± 2.9e-05 | 0.00179 ± 0.00036
U47A A53G | 0.000816 ± 9.9e-05 | 0.00725 ± 0.0013 | 0.0106 ± 0.0028 | 0.00166 ± 0.0003 | 0.04 ± 0.011
C34U C61A C67U | 0.00014 ± 3.8e-05 | 0.000388 ± 0.00011 | 5.38e-05 ± 2.6e-05 | – | 0.000236 ± 6.1e-05
U46C G59C C68U | < 1e-05 | – | – | – | –
G62A A64C | < 1e-05 | < 1e-05 | < 1e-05 | < 1e-05 | < 1e-05
A6C G13C G29U C70G | < 1e-05 | – | – | – | –
C8U G35U A39U G43U | < 1e-05 | < 1e-05 | – | – | –
C34U G51U | < 1e-05 | < 1e-05 | – | < 1e-05 | –
C16U G40U U56A C71G | 3.89e-05 ± 1.1e-05 | – | – | – | 0.00169 ± 0.00032
A33G G40C U56G | < 1e-05 | – | – | – | –
U47G C58U C70A | 7.14e-05 ± 3e-05 | – | 9.31e-05 ± 2e-05 | – | 4.44e-05 ± 2.1e-05

Variant | self-cleavage kobs at 40 uM GlcN6P (glucosamine-6-phosphate [1]) [s⁻¹] | self-cleavage kobs at 640 uM GlcN6P (glucosamine-6-phosphate [2]) [s⁻¹] | self-cleavage kobs at 2500 uM GlcN6P (glucosamine-6-phosphate [3]) [s⁻¹] | self-cleavage kobs at 160 uM GlcN6P (glucosamine-6-phosphate [4]) [s⁻¹] | self-cleavage kobs at 10000 uM GlcN6P (glucosamine-6-phosphate [5]) [s⁻¹]
C8G U31C C71A | < 1e-05 | – | – | – | –
C8U A42G | < 1e-05 | – | – | < 1e-05 | < 1e-05
C10G G43U U47G C61A | < 1e-05 | < 1e-05 | < 1e-05 | – | –
A6U C10A C11G A12C U54C | < 1e-05 | – | – | – | < 1e-05
G13C G43U A52U | < 1e-05 | < 1e-05 | < 1e-05 | – | < 1e-05
A6U G37C G41C U47C A48U G59U | < 1e-05 | – | – | – | < 1e-05
G43C U57A C70G | < 1e-05 | < 1e-05 | < 1e-05 | – | –
C16U C70U | 0.00111 ± 0.00017 | 0.00284 ± 0.0011 | 0.00209 ± 0.0004 | 0.000974 ± 0.0002 | 0.00694 ± 0.0028
G29A A48G | < 1e-05 | < 1e-05 | – | < 1e-05 | –
A24U | 0.002 ± 0.0003 | – | – | – | –
G9A C10G C68U | < 1e-05 | – | – | – | –
C61A G62U | < 1e-05 | < 1e-05 | – | < 1e-05 | < 1e-05
C8G A39C | < 1e-05 | < 1e-05 | < 1e-05 | < 1e-05 | < 1e-05
A6U G40C | < 1e-05 | – | – | – | –
A12U G13U G43A | < 1e-05 | – | – | – | < 1e-05
G26U C70U | 0.000967 ± 0.00041 | – | 0.000552 ± 0.0002 | 0.00126 ± 0.00046 | –
A15C G62A | < 1e-05 | < 1e-05 | < 1e-05 | < 1e-05 | < 1e-05
C34A G51A | < 1e-05 | – | < 1e-05 | < 1e-05 | –
A42C G51U | < 1e-05 | < 1e-05 | – | < 1e-05 | < 1e-05
G59C C67G C70G | < 1e-05 | – | – | – | –
C10U A12U A33U A53G C58U U69G | 9.07e-05 ± 2.5e-05 | 0.000216 ± 5.1e-05 | 0.000132 ± 4.1e-05 | 0.000159 ± 3.3e-05 | 6.22e-05 ± 1.8e-05
G7A A52U G63C | < 1e-05 | < 1e-05 | < 1e-05 | < 1e-05 | –
